According to a protein production outcome set (Wang et al. 2014):

Assay: label from the status in PepcDB records

Sequence	protein production
MLPDVQLLKPEVPIGLSRVGATGIKKLVEVQREGKRPIILISTFDVFVDLPAHLKGVNLSRNFEVIDEVLETLTAKPIENIEDLVVEIADHLLKRHEYATKAEARMNSELIMRKRTPKTGQRTQEVVKIFGEATLGRDGSKVIMVGVEVTGITACPCAQELVKASSAERLAKMGFDEETIQKILDAIPVATHNQRGRATLKVQVTDSFKVPIAKLIDVAKSSMSYETYEILKREDELAVVEAAHRNTRFVEDGVRYMAMELLKTFPNAPDDILVFLRQENEESIHQHNVVAERFA	failed
MPPPAMLAFDDGLARKSNDNEWQGFRVFPGENTNPNPNINFLVKKAILQNEKSITPLFSRSSARDDSFRIVLPPALPPPRDSTVPLPMLPEPMRVRKKLSHQESVIFMSKSRFAEKILYKEEDFKCNAFCLSLPGFGKNKLIRSSSKRQNSMEKKMIRASSFTGSTVSVRASLEKFECGSWASTTALIQDNGRLFFDFPVEMTKCNSRGGNGGRDVQEPVTSGFLFDRETETLALRSVLKTRSTRDHRRSAESSPQRRVRFSTSSSSASVSCPTSPRTCITPRLRKARDDFNTFLTAQNA	failed
MAPLSFEVRSVSVLVLVLAVSAAFCLGIGFVLQQNAAQHAPLSDFLSPRLLLDLMHVRRWLGGIGFMVVGMVLGAVALAHGELSLVEPLLATNLLFALGLSRRQTKQPLGRQGWAGLALLAGGVTAFIVAGQPTGGDAVTNPLRHWVIIGVMVGFALLLTTYAKQSRLSAAPVLLSLAAGLLYGVQDALTRVSGQRFSEGGWPELVTGWQPYAVLALGVTGLVLVQSAFETAPLRMSLPALTAAQPLAGIVCGVGFLGDQLRTDTGALAWEAAGLAAVVLGIVLLGLHPAMPRGSAEAERQRDLQPH	failed
MSRRRMSESLPPGVQVDPAAIEQLVGRPVDDLSHYRRALTHRSLLRVHPARTFRSNERLEFLGDALLDVFVGEVLYDRFPEKDEGALTRLRARLVSERPLATYARGLGLGPHLLMSENAAEGDGRDNPSILADAFEAFVGAVYLDLGHEAARGFVQDRVLAPVDLEDVATRDDNYKSQLLEHLQALGRPQPTYHVVEEKGPSHDKTFTVEVRVGDAAYERGTAGSKQDAEQQAARRTLDEMASDPPAS	failed
MKSFFSIFGDPSVTSVAIGKFDGMHLAHQRLFSYLDEGGAILTVDAQRGNLTPGEYKREFTPFPLYSIPLGKIKHLSGERFIYMLKKAFPNLTKVVVGYDFRFGKNRAFGVEELRGYFAGEVVVVPEVFHRGHSVHSEAIRELIAQGEMNLAGELLGRD	failed
MPKRSKEDTEITIQKIMDAVVDQLLRLGYDKMSYTTLSQQTGVSRTGISHHFPKKTDFTAALDGRIFKMFIEHLEFEKGLDAFSQSWIKALEDSEFLAILRLLFHHIVTSESAHEFAANGIDRLYKMVESQFGSGGDKELEWLIGRSLIQMSK	not failed
MKIIAFYLPQFHQIKENDRWWGKGFTEWTNTKSAQPLFSGHYQPREPYQDFYYDLTTPSVRKWQAEIAKAYGIYGFCYYHYWFKGKRLLETPFNEVLKMKEPDFPFCLSWANEPWTKSWDGLDKHILMPQDYGDISDWKEHFDYLLQAFQDERYIYIDDKPLFIIYRPGHIPDCEKMLNYWNALARANGLKGIYFAETLNSFPLPNINGFDASIQFEPFYTIAHDSSSDINKVIYDSDMQLNVWDYDKVWMYILQRSLPKKKTFPGAFVDWDNTARRKNANSSIFVGSTPEKFTIYLSKQIHRTYSFYNSEFLFINAWNEWAEGTYLEPDKKYGFSYLEGVKNAIDRGMKAYKKDESFLEHHHHHH	not failed
AGQVVHTETTEVVLTADPVTGFGIQLQGSVFATETLSSPPLISYIEADSPAERCGVLQIGDRVMAINGIPTEDSTFEEANQLLRDSSITSKVTLEIEFDVAESVIPSSG	not failed
VPKLVDHDERRRSITAAAWRLIAARGIEAANMRDIATEAGYTNGALSHYFAGKDEILRTSYEHISEATDRRIAEALGDATGLDALRILCREVMPINEEQLLEARIAASLWPRAMYDEQMAATNRRTMDNWREQMAIFLEQAREEGSVGDIDVTIVVEQLLNMMMGMQILGVLTPGETSSERQLEMLEQFVAAL	not failed
MAPNASCLCVHVRSEEWDLMTFDANPYDSVKKIKEHVRSKTKVPVQDQVLLLGSKILKPRRSLSSYGIDKEKTIHLTLKVVKPSDEELP	failed
MAQKILVEQVVKRKAIVVQPKDTVDRVAKILSRNKAGSAVVMEGDEILGVVTERDILDKVVAKGKNPKEVKVEEIMTKNPVKIEYDYDIEDVIELMTEKGVRRVLVTKFGKPIGFVTAADILAALASHNHEEEEEEREEESEVYGICEVCGQYGALYKVYHEGRELWVCETCKDLIEGR	not failed
LNSAPTPRDVVANAPAPVQAAVAGAQEYAAQAGLNTEELAVDALYNAIKVRLAGTGLGIPPQIEAFYQANRTNFNGFYMANRGAIDFIFSM	not failed
PKATAQMEGRLQEFLTAYAPGARLALADGVLGFIHHQIVELARDCLAKSGENLVTSRYFLEMQEKLERLLQDAHERSDSEEVSFIVQLVRKLLIIISRPAR	not failed
MEYLIYSLIAVIILTVGLNNIFKKQSKYFYMLATLISVVVTSYEIFKIWTGFKLEGIIFVLERSFMKGFVSTALFILVMFAGALSKKWGITKKLLRVRAEMAILASILILPHFIIYTYKFLVRLFSGKPLSILYISFIIVGLIAFIIMIPLFITSFKKVRVTMSPSKWKMVQRWAYPFYFLVYVHIILILFNKKVFNLNAVIIYTVIFLGYFILRICNNKKAIK	failed
MVSNIDHKAMEALLRGQGCANNLKILLENGEISSVSTEPLIHTILDSFSLALSFMDSPNHPPYHESSSHNMASHMSRRSSKQKLCVAEGLVNYNHDSRTMCPNDGFTWRKYGQKTIKASAHKRCYYRCTYAKDQNCNATKRVQKIKDNPPVYRTTYLGKHVCKAFAVHDDTYSSTMIRFDQVVPEPIMPQLTTIDHQVITVEENSAEHIMNQECDINDYLVDDDPFWASQFPPFPSSDTMFLENISAFD	failed
MEKKIVYFNKPGRENTEETLRLAVERAKELGIKHLVVASSYGDTAMKALEMAEGLEVVVVTYHTGFVREGENTMPPEVEEELRKRGAKIVRQSHILSGLERSISRKLGGVSRTEAIAEALRSLFGHGLKVCVEITIMAADSGAIPIEEVVAVGGRSRGADTAVVIRPAHMNNFFDAEIKEIICMPRNKR	not failed
LAPTAQKMSKNYGVLASILLSQAAYESNYGSSLLSVKYHNIYSLPARPGQEHIYLKDNVYSKGKWQYQKVDFAVFRDWSSSMSSYLEELRQGRWGESTYKEVAGTTSYKVAAEKLQAAGFNSDPDYTKHLISIIETYNLVKYDR	failed
MPEIEIAAGSGDNNDALFGKYELGKLLGCGAFAKVFHARDRRTGQSVAVKILNKKKLLTNPALANNIKREISIMRRLSHPNIVKLHEVMATKSKIFFAMEFVKGGELFNKISKHGRLSEDLSRRYFQQLISAVGYCHARGVYHRDLKPENLLIDENGNLKVSDFGLSALTDQIRPDGLLHTLCGTPAYVAPEILSKKGYEGAKVDVWSCGIVLFVLVAGYLPFNDPNVMNMYKKIYKGEYRFPRWMSPDLKRFVSRLLDINPETRITIDEILKDPWFVRGGFKQIKFHDDEIEDQKVESSLEAVKSLNAFDLISYSSGLDLSGLFAGCSNSSGESERFLSEKSPEMLAEEVEGFAREENLRMKKKKEEEYGFEMEGQNGKFGIGICISRLNDLLVVVEARRRGGDGDCYKEMWNGKLRVQLIRVCDQTSSTNAAI	failed
MMLTMGMLERYVLKRTMGALVGALAVLSAMVMLIAFVDIARNVGTRADASFLRLLYLTILQAPATILVLAPFIFLFGTMWAFVELNRRSELIAMRAAGISAWRFIMPAAASSFVIGLLTITLLNPLTTAMTAKFETERDRTMNGYLKEAPKGTWLRQGDDKTQIVIRARARELVDGSVRLRGVSLFVYTLNAKGVMDFTRRIEANEARLEPGFWRLSGVREATPGAGAIRSDSLSIPSNLDDRTASERFNTPQAVALWRLPATIQRTADAGFSAVPFKLRLQQDLATPLLFAAMSVLAAAFSLRLMRLGGLAMLAGSGVALGFGFFFFNELCSTLGRADVLAPFVAAWTPPTVALLVGFTLLCYTEDG	failed
MAKFIMVVGTSSNSGKTVLVSGICRMLSNKGYKVAPFKSQNMSLNSRVSVEDGEIAVAQYTQAMAARAEPSVHFNPILLKPKGNFVSQVIVHGNPYEDKDYNEYRSKKDDFLVKIKESIDYLDKNYDYVVIEGAGSCCEINLLNDDIANLKVAEIAGADAILVSDIDRGGVFASIYGTVQLLPENWKKLLKGFVINKFRGNIDVLKDGFEKIEELTNIPVIGTIPYDETLVLPEEDSQALDGKRLEHHHHHH	failed
